Data reported in patent US20030186329A1, “Use of substrate subtraction libraries to distinguish enzyme specificities” (The Scripps Research Institute, priority 1998, published 2003).

These substances were tested on u-PA (assay: Kinetics of cleavage of synthetic peptides by u-PA (HPLC, Eadie-Hofstee analysis)). Settings: ratio of kcat/Km for peptide hydrolysis, u-PA over t-PA.
Format: biochemical
Protocol: (§1) Concentrations of functional t-PA and u-PA were measured by active site titration with 4-methylumbelliferyl p-guanidinobenzoate (Jameson, G., et al., (1973) Biochem. J. 131, 107-117) using a Perkin-Elmer LS 50B Luminescence Fluorometer as previously described (Madison, E. L., et al., (1995) J. Biol. Chem. 270: 7558-7562). In addition, the enzymes were titrated with a standard PAI-1 preparation that had been previously titrated against a trypsin primary standard. Total enzyme concentrations were measured by ELISA.
(§2) Individual phage stocks were prepared and digested with no enzyme, t-PA, u-PA, or u-PA in the presence of 1 mM amiloride, a specific inhibitor of u-PA. Kinetic-data were obtained by incubating various concentrations of peptide with a constant enzyme concentration to achieve between 5 and 20% cleavage of the peptide in each reaction. For assays with u-PA, enzyme concentration was either 815 or 635 nM. For assays with t-PA enzyme concentration was 700 nM. […] The buffer used in these assays has been described (Madison, E. L., et al., 1995). Reactions were stopped by addition of triflouroacetic acid to 0.33% or by freezing on dry ice. Cleavage of the 13 and 14 residue peptides was monitored by reverse phase HPLC as described (Madison, E. L., et al., 1995). The 4-6 residue peptides were acylated at their amino termini and amidated at their carboxyl termini. Cleavage of the 4-6 residue peptides was monitored by hydrophilic interaction HPLC chromatography (HILIC) (Alpert, A. J. (1990) J. Chromatog. 499, 177-196.) using a polyhydroxyaspartamine column from PolyLC (Columbia, Md.). Buffer A was 50 mM triethylamine phosphate in 10% acetonitrile and buffer B was 10 mM triethylamine phosphate in 80% acetonitrile. Peptides were eluted by a gradient which was varied from 100% Buffer B to 100% Buffer A during a 13 minute interval. The percent of cleaved peptide was calculated by dividing the area under the product peaks by the total area under substrate and product peaks. For all peptides containing multiple basic residues, mass spectral analysis of products confirmed that cleavage occurred at a single site and identified the scissile bond. Data were interpreted by Eadie-Hofstee analysis. Errors were determined as described (Taylor, J. R., 1982) An introduction to error analysis. The study of uncertainties in physical measurements. University Science Books, Mill Valley, Calif.) and were <25%.
(§3) Kinetic data were obtained by incubating various concentrations of peptide with a constant enzyme concentration to achieve between 5 and 20% cleavage of the peptide in each reaction as described in Example 1.

Substance | u-PA:t-PA Selectivity
GSGK↓S (GSGKS; listed as Homo sapiens) [XVIII] | approximately 120

These substances were tested against T1, u-PA (Homo sapiens, UniProt P00749) in the same assay as above. Settings: hydrolysis of peptide by u-PA.
T1 construct: purchased Jack Henkin (Abbott Laboratories)
Format: biochemical
Protocol: as §1, §2, §3

Substance | Km | kcat, u-PA
LGGSGR↓KASLSLE (LGGSGRKASLSLE; listed as Homo sapiens) [XIV] | 1.13 mM | 1.14 s⁻¹
SGR↓S (SGRS; listed as Homo sapiens) [XV] | 2.1 mM | 2.3 s⁻¹
GSGK↓S (GSGKS; listed as Homo sapiens) [XVIII] | 4.25 mM | 0.82 s⁻¹
LGGSGR↓SATRDLE (LGGSGRSATRDLE; listed as Homo sapiens) [XIII] | 0.733 mM | 0.54 s⁻¹
SGK↓S (SGKS; listed as Homo sapiens) [XVII] | 7.9 mM | 1.22 s⁻¹
SGR↓SA (SGRSA; listed as Homo sapiens) [XVI] | 3.1 mM | 3.7 s⁻¹

These substances were tested against T2, t-PA (Homo sapiens, UniProt P00750) (assay: Kinetics of cleavage of synthetic peptides by t-PA (HPLC, Eadie-Hofstee analysis)). Settings: hydrolysis of peptide by t-PA.
Format: biochemical
Protocol: as §1, §2, §3

T2 sequence (P00750 36-562): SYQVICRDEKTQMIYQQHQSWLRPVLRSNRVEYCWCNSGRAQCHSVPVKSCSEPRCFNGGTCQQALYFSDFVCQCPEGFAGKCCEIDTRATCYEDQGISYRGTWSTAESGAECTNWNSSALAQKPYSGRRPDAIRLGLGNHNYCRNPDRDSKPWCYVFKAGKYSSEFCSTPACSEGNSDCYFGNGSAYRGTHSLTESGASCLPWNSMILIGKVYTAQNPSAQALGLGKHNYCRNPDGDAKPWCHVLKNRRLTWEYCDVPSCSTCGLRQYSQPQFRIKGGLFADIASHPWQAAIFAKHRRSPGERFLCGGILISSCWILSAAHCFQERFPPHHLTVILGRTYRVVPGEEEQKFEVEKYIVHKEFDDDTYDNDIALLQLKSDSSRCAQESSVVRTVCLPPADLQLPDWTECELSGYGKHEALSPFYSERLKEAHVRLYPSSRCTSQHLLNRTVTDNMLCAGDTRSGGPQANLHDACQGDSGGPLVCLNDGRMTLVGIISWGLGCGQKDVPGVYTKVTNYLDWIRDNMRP

Substance | Km | kcat, t-PA
LGGSGR↓KASLSLE (LGGSGRKASLSLE; listed as Homo sapiens) [XIV] | 5.1 mM | 0.168 s⁻¹
SGR↓S (SGRS; listed as Homo sapiens) [XV] | 15 mM | 5.0 s⁻¹
GSGK↓S (GSGKS; listed as Homo sapiens) [XVIII] | 44 mM | 0.07 s⁻¹
LGGSGR↓SATRDLE (LGGSGRSATRDLE; listed as Homo sapiens) [XIII] | 1.5 mM | 0.068 s⁻¹
SGK↓S (SGKS; listed as Homo sapiens) [XVII] | 28 mM | 0.19 s⁻¹
SGR↓SA (SGRSA; listed as Homo sapiens) [XVI] | 40 mM | 2.4 s⁻¹

Same assay, conditions: ratio of kcat/Km for peptide hydrolysis, t-PA over u-PA

Substance | t-PA:u-PA Selectivity
FRGR↓K (FRGRK; listed as Homo sapiens) [VII] | approximately 74
SGR↓S (SGRS; listed as Homo sapiens) [XV] | 0.30
SGK↓S (SGKS; listed as Homo sapiens) [XVII] | 0.04

These substances were tested against T2, t-PA (assay: Dot blot assay of digestion of individual substrate phage stocks by t-PA). Settings: digestion by t-PA and u-PA.
Format: biochemical
Protocol: (§4) To verify that the substrate subtraction library had yielded substrates that were preferentially cleaved by t-PA, digestion of individual phage stocks by t-PA and u-PA was analyzed by a dot blot assay that was performed as previously described (Ding, L., et al., 1995; Smith, M. M., et al., 1995) (FIG. 3). Loss of positive staining indicates loss of antibody epitopes from the phage due to proteolytic cleavage of the random hexamer region.
(§5) In general, with the exception of the screening protocol, procedures followed were those used in Example 1. Digestion of the phage was performed using enzyme concentrations varying from 2-10 μg/ml and incubation times varying from 0.5-10 hours. Phage precipitation and dot blot analysis were performed as described in Example 1. Individual phage stocks were prepared and digested with no enzyme, t-PA, u-PA, or u-PA in the presence of 1 mM amiloride, a specific inhibitor of u-PA′ for periods of time varying from 15 minutes to 10 hours. Individual reaction mixtures were spotted onto a nitrocellulose filter using a dot blotter apparatus (BioRad). The filter was probed with MAb 3E-7 and developed using the Amersham Western ECL kit. Loss of positive staining indicates loss of antibody epitopes from the phage due to proteolytic cleavage of the randomized hexamer region.

Substance | selectivity of substrate phage for t-PA or u-PA
RSANAI [Phage 33] | u-PA selective substrate
FRGRAA [Phage 7] | t-PA selective substrate

Same assay, conditions: loss of antibody epitopes

Substance | digestion of phage stock by t-PA
PGRVVG [Control phage PL, reference compound] | not digested by either enzyme
RIARRA [Substrate phage 51] | substrate of both t-PA and u-PA

These substances were tested against T1, u-PA (assay: Dot blot assay of digestion of individual substrate phage stocks by u-PA). Settings: loss of antibody epitopes.
Format: biochemical
Protocol: as §4
as §5, with “The filter was probed with MAb 3E-7 and developed using the Amersham Western ECL kit. Loss of positive staining indicates loss of antibody epitopes from the phage due to proteolytic cleavage of the randomized hexamer region.” left out
Two changes were made in the experimental protocol to examine the P3 and P2 preferences of u-PA. […] Although this semi-quantitative assay cannot provide kinetic constants, it can provide an accurate rank ordering of the lability of the substrate phage clones.

Substance | digestion of phage stock by u-PA
PGRVVG [Control phage PL, reference compound] | not digested by either enzyme
RIARRA [Substrate phage 51] | substrate of both t-PA and u-PA
